The target in this assay is T1, CFP-10 carrying an N-terminal HIS tag, produced by BCG::2F9-HIS-EsxB (Mycobacterium tuberculosis, UniProt P9WNK5 2-100).
T1 sequence: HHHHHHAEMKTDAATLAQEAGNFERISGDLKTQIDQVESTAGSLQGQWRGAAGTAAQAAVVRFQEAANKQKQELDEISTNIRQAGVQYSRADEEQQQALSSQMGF
In words: Ni-NTA co-purification, Coomassie gel and western blot. On the technique in general: In western blotting, separated proteins are transferred to a membrane and probed.

B1: 6 kDa early secreted antigenic target (ESAT-6), native, encoded by esxA (other)
chain: TEQQWNFAGIEAAASAIQGNVTSIHSLLDEGKQSLTKLAAAWGGSGSEAYQGVQQKWDATATELNNALQNLARTISEAGQAMASTEGNVTGMFA
For the molecule B1, the binding result is “binds”.

(Values after patent US20070009547A1 (INSTITUT PASTEUR, published 2007).)
